Laboratory results taken from US10456465B2, “Compositions, kits, and methods for the diagnosis prognosis, monitoring, treatment and modulation of post-transplant lymphoproliferative disorders and hypoxia associated angiogenesis disorders using galectin-1” (Dana-Farber Cancer Institute, Inc., priority 2009, dated 2019).

Columns and labels:
Gal8 = biological target: T1, Gal8 (Homo sapiens, UniProt O00214); experiment: Binding of 488-Gal8 to HUVEC; conditions: 488-Gal8 20 μg/ml, mAb 0.5 μM
T1 construct: made in house
T1 sequence (O00214 1-317): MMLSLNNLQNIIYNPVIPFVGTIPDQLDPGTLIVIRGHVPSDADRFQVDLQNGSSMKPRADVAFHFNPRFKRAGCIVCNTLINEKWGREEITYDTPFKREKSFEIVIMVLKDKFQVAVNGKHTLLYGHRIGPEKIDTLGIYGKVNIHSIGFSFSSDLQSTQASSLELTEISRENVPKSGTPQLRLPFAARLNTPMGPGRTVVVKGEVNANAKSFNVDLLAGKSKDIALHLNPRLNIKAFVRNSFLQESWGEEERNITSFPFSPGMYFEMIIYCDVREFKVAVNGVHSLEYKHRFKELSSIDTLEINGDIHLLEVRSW
Procedure: For glycophenotyping, ECs were incubated with biotinylated L-PHA, LEL, SNA, MAL II, PNA and HPA (all from Vector). Recombinant Gal1 was purified as described in Ilarregui et al. (2009) Nat Immunol 10, 981-991. For binding assays, ECs were incubated for 1 h at 4° C. with dyLight 488-labeled galectins in the absence or presence of lactose, sucrose, anti-Gal1 or isotype control mAb or following transfection with GnT5, GCNT1 or scrambled siRNA. Cells were analyzed on a FACSAria (BD Biosciences). For segregation, ECs were treated with Gal1 for 1 h, fixed and incubated for 1 h with anti-human VEGFR2 antibody (55B11; Cell Signaling) as described in Ilarregui et al. (2009) Nat Immunol 10, 981-991. Cells were analyzed on a Nikon laser confocal microscope (Eclipse E800).
DyLight 488-conjugated Gal1 (488-Gal1) was obtained using DyLight labeling kit (Thermo Scientific). Inhibitors of Jak2-STAT3 (AG490; 5 μM), Jnk-SAP (SP600125; 20 μM), p38 (SB202190; 10 μM), HIF-1α (3 μM) and O-glycosylation (benzyl-α-Ga1NAc; 2 mM) were from Calbiochem. Inhibitors of Erk1/2 (U0126; 5 μM), PI(3)K-Akt (Ly294002; 2 μM) and NF-κB (BAY 11-7082; 1 μM), ROS (N-acetyl-cysteine; NAC), N-glycosylation (swainsonine; 3 μM), lactose or sucrose (30 mM) were from Sigma. PNGase F (25 U/μg protein) was from New England Biolabs. […]

[1] = biological target: T2, recombinant human glutathione-s-transferase (GST)-Gal1 (human, UniProt P09382 1-135); experiment: ELISA on recombinant protein
T2 construct: Immunogen and ELISA antigen; not shown: glutathione-S-transferase (GST) tag
T2 sequence (P09382 whole entry): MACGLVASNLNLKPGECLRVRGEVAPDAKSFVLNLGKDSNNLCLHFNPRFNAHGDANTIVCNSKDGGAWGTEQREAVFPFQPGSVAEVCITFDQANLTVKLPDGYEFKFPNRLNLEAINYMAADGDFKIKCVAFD
Excerpt: (§1) Anti-human Gal1 mAbs were obtained by immunizing B6-Cg-Tg (BCL2)22Wehi-J mice (Jackson Labs, Bar Harbor, Me.) with recombinant human glutathione-s-transferase (GST)-Gal1, generating anti-Gal1 hybridomas with standard methods and purifying the Gal1 monoclonal antibody and class-matched IgG2bλ, control by affinity chromatography. […] A previously described anti-Gal1 polyclonal antibody (Juszczynski et al. (2007) *Proc Natl Acad Sci USA* 104:13134-9) was used as a positive control in all assays.

recombinant His-Gal1 = biological target: T3, recombinant His-Gal1 (human, UniProt P09382 1-135, limits assumed); experiment: ELISA on recombinant protein
T3 construct: not shown: His tag
T3 sequence (P09382 whole entry): as above
Excerpt: as §1

B1: anti-Gal1 monoclonal antibody 8F4F8G7 (antibody, V domains shown)
VH: EVQLQQSVAEFVRPGASVRLSCTASGFNIKNTYIHWVRQRPEQGLEWIGKIDPANGNTKYVPEFQGKATMTADTSSNTVYLHLSSLTSEDTAIYYCVDGYYGWYFAVWGTGTTVTVSS
VL: QAVVTQESALTTSPGETVTLTCRSSTGAVTTSNYANWVQEKPDHLFTGLIGATNNRAPGVPARFSGSLIGDKAVLTITGAQTEDEAIYFCALWYRNHFIFGSGTKVTVL
notes: Murine hybridoma mAb (deposit PTA-10535), lambda light chain; also called 14-19 8F4-F8-G7; clone 8F4.8F.67
effect on binding of Gal8 to the EC surface (Gal8): did not interfere | binding result [1]: binds | binding result (recombinant His-Gal1): binds
